Here are results for twelve molecules from article PMC11142921, “Antibody discovery identifies regulatory mechanisms of protein arginine deiminase 4” (Nature Chemical Biology, 2024).

Where only a bound is given, the exact number is not on record here.

Assay [1] concerns the target T1, human protein arginine deiminase 4 (hPAD4), wild type (human, UniProt Q9UM07, biotin on the N-terminal AviTag). The experiment in a line: cell-based or functional assay.
Assay [2] deals with T2, PAD3 (Homo sapiens (assumed), UniProt Q9ULW8).
T2 construct: PAD3, commercially available; also called protein arginine deiminase 3
T2 sequence (Q9ULW8 whole entry): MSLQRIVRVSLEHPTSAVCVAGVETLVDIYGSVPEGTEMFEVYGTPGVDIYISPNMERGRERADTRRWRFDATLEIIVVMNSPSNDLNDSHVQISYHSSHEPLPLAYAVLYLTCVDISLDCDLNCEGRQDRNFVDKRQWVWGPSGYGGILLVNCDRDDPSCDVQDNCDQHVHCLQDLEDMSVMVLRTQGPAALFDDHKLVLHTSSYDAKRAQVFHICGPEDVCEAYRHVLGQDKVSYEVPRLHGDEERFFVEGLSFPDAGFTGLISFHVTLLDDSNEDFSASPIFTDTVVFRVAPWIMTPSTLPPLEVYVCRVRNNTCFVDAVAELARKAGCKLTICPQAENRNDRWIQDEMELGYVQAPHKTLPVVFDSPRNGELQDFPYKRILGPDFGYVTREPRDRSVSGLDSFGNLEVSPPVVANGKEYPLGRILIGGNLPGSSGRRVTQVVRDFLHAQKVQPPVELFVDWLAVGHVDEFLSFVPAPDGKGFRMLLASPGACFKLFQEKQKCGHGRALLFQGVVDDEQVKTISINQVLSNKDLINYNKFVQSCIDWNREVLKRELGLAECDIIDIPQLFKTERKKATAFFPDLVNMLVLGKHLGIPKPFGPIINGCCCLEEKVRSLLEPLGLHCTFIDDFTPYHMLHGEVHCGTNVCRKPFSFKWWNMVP
In words: BLI; binding of the functional human antibodies to PAD4, PAD2 and PAD3; who was immobilised and the antibody format are not told for this experiment. Particulars: both partners purified.

The target in assay [3] is T1, human protein arginine deiminase 4 …. In words: BLI; Octet RED384; biotinylated hPAD4 (WT or mutant) on streptavidin biosensors, purified binder as analyte; TBSTB; calcium concentration not told for these experiments; 1:1 monovalent model. Particulars: both partners purified.
The target is the same in assay [4]. In words: BLI; Octet RED384; biotinylated hPAD4 on streptavidin biosensors, antibody (IgG by the legend) as analyte; TBSTB; 2 and 10 mM Ca2+; 1:1 monovalent model. Particulars: both partners purified.
Assay [5] has the same target. The experiment in a line: negative-stain EM; hPAD4 incubated with Fab fragments in equimolar amounts; 2D micrographs; uranyl formate stain. To be noted: both partners purified.
Assay [6] deals with T3, mouse protein arginine deiminase 4 (mPAD4) (Mus musculus, UniProt Q9Z183, biotin on the N-terminal AviTag).
T3 construct: Protein arginine deiminase 4, mouse; PreScission or TEV site between the tags and PAD4; also called murine PAD4; source: BirA-expressing E. coli (C43 (DE3) Pro+ or BL21 Gold (DE3)), purified (Ni-NTA, 0.5 mM TCEP); not shown: AviTag, N-terminal, kept
T3 sequence (Q9Z183 whole entry): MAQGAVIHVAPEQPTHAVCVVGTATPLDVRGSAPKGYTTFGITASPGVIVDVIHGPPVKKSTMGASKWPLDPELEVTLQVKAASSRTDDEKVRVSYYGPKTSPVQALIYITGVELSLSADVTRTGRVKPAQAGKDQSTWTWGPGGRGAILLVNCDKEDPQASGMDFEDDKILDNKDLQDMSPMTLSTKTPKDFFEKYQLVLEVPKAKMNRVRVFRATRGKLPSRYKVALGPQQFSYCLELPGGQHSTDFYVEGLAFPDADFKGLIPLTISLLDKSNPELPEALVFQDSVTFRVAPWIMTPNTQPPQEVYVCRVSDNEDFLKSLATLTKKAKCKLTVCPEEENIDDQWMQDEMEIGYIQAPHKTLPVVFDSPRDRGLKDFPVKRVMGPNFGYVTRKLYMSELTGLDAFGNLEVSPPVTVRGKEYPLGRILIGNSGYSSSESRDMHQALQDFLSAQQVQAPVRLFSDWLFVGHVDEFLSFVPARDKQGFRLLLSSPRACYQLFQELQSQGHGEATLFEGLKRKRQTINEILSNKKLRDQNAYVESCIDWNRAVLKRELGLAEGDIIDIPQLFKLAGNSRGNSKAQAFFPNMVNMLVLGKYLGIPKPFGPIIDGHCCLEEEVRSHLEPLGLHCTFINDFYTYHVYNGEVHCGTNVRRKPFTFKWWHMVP
In words: BLI; Octet RED384; biotinylated mPAD4 on streptavidin biosensors, antibody as analyte; TBSTB; 10 mM Ca2+. Particulars: both partners purified.

Assay [7] has as its target T1, human protein arginine deiminase 4 …. In words: BLI; binding of the functional human antibodies to PAD4, PAD2 and PAD3; who was immobilised and the antibody format are not told for this experiment. To be noted: both partners purified.
Assay [8] has as its target T4, PAD2 (Homo sapiens (assumed), UniProt Q9Y2J8).
T4 construct: PAD2, commercially available; also called protein arginine deiminase 2
The description is as above. To be noted: both partners purified.

In assay [9] the target is T5, hPAD4 Y435A (human, UniProt Q9UM07, Y435A).
T5 construct: Protein arginine deiminase 4, human, point mutant; Mutant of the hPAD4 construct m1; source: cloned and expressed as hPAD4 (E. coli, Ni-NTA)
T5 sequence (Q9UM07 whole entry Y435A): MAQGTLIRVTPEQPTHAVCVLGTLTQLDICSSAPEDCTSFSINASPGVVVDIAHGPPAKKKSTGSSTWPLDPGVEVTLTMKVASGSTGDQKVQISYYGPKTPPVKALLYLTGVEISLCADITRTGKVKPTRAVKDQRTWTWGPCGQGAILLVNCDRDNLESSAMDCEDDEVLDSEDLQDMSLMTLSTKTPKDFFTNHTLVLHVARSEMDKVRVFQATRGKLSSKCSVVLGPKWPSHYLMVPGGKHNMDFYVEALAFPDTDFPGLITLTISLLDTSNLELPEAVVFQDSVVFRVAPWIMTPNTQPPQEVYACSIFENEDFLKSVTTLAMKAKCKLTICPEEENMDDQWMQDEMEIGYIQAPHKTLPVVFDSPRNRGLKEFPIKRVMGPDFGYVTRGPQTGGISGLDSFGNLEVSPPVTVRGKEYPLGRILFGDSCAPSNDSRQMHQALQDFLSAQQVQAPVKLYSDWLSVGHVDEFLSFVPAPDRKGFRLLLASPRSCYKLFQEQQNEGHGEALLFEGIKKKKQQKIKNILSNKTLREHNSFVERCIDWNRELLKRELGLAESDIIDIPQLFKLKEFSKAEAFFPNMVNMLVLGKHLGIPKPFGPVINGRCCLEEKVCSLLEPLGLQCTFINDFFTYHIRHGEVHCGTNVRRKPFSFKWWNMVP
The experiment in a line: BLI; Octet RED384; biotinylated hPAD4 (WT or mutant) on streptavidin biosensors, purified binder as analyte; TBSTB; calcium concentration not told for these experiments; 1:1 monovalent model. Particulars: both partners purified.

Assay [10] has as its target T6, hPAD4 R8E–Y435A double mutant (human, UniProt Q9UM07, R8E | Y435A).
T6 construct: Protein arginine deiminase 4, human, double mutant; Mutant of the hPAD4 construct m1; also called R8E/Y435 double mutant; source: cloned and expressed as hPAD4 (E. coli, Ni-NTA)
The description is as above. Particulars: both partners purified.

In assay [11] the target is T7, hPAD4 R8E (human, UniProt Q9UM07, R8E).
T7 construct: Protein arginine deiminase 4, human, point mutant; Mutant of the hPAD4 construct m1; source: cloned and expressed as hPAD4 (E. coli, Ni-NTA)
T7 sequence (Q9UM07 whole entry R8E): as the sequence (Q9UM07 whole entry Y435A) above, with R8E, A435Y counted along it
The assay is described as above. Particulars: both partners purified.

In assay [12] the target is T3, mouse protein arginine deiminase 4 …. The experiment in a line: BLI; Octet RED384; biotinylated mPAD4 on streptavidin biosensors, antibody as analyte; TBSTB; calcium-free form of mPAD4. To be noted: both partners purified.

T1 sequence (Q9UM07 whole entry): as the sequence (Q9UM07 whole entry Y435A) above, with A435Y counted along it
T4 sequence (Q9Y2J8 whole entry): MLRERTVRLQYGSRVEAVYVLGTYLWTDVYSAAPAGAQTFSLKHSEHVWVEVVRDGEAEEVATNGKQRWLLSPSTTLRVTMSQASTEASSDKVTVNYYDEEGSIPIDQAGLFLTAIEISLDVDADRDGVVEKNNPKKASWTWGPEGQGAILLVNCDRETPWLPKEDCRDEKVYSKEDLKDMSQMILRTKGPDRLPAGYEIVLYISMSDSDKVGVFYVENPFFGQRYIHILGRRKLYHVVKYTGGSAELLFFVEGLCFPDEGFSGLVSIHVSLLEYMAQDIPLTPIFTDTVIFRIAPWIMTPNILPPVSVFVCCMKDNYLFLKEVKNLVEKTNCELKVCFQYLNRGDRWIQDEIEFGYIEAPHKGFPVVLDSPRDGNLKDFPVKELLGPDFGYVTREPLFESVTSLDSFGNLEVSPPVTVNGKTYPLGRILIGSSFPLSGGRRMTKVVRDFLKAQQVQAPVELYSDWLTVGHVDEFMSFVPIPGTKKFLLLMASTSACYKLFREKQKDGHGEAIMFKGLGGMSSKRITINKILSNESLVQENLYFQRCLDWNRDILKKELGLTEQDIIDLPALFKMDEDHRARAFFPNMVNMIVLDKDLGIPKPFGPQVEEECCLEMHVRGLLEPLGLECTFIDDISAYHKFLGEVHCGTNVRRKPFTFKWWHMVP
T6 sequence (Q9UM07 whole entry R8E/Y435A): as the sequence (Q9UM07 whole entry Y435A) above, with R8E counted along it

B1: E3 (affinity-matured variant of hI365) (antibody, V domains shown)
VH: EVQLVESGGGLVQPGGSLRLSCAASGFNFFYSIHWVRQAPGKGLEWVASISPYTDYTSYADSVKGRFTISADTSKNTAYLQMNSLRAEDTAVYYCARKHPGSYPFWGFALDYWGQGTLVTVSS
VL: DIQMTQSPSSLSASVGDRVTITCRASQSVSSAVAWYQQKPGKAPKLLIYSASSLYSGVPSRFSGSRSGTDFTLTISSLQPEDFATYYCQQSSSSLVTFGQGTKVEIK
Turning to B1, in assay [1], the “IC50 of PAD4 inhibition” value was 94 nM and the “IC50 of inhibition of PAD4 citrullination of histone H3 (western blot)” value came to 95 nM.

B2: E6 (affinity-matured variant of hI365) (antibody, V domains shown)
VH: EVQLVESGGGLVQPGGSLRLSCAASGFNFYYSIHWVRQAPGKGLEWVASISPYTDRTSYADSVKGRFTISADTSKNTAYLQMNSLRAEDTAVYYCARKHPGRYPNWGFALDYWGQGTLVTVSS
VL: DIQMTQSPSSLSASVGDRVTITCRASQSVSSAVAWYQQKPGKAPKLLIYSASSLYSGVPSRFSGSRSGTDFTLTISSLQPEDFATYYCQQSMSSQLVTFGQGTKVEIK
notes: variant of the heavy chain of hI365 from soft-randomisation libraries; variant of the light chain of hI365; CDR L3 of ten amino acids; also called clone E6
Take B2: in assay [1], the “IC50 of inhibition of PAD4 citrullination of histone H3 (western blot)” value was 13 nM. Moreover, the binding result in [2] is “no binding”.

B3: hI365 G58D (antibody, V domains shown)
VH: EVQLVESGGGLVQPGGSLRLSCAASGFNFYYSIHWVRQAPGKGLEWVASISPYSDYTSYADSVKGRFTISADTSKNTAYLQMNSLRAEDTAVYYCARKHPGSYPFWGWALDYWGQGTLVTVSS
VL: DIQMTQSPSSLSASVGDRVTITCRASQSVSSAVAWYQQKPGKAPKLLIYSASSLYSGVPSRFSGSRSGTDFTLTISSLQPEDFATYYCQQSSSSLVTFGQGTKVEIK
notes: as the heavy chain of hI365 with the stated change; as the light chain of hI365; also called mutant G58D
As for B3, in assay [3], the binding result is listed as “binds”.

B4: hI365 IgG (antibody, V domains shown)
VH: EVQLVESGGGLVQPGGSLRLSCAASGFNFYYSIHWVRQAPGKGLEWVASISPYSGYTSYADSVKGRFTISADTSKNTAYLQMNSLRAEDTAVYYCARKHPGSYPFWGWALDYWGQGTLVTVSS
VL: DIQMTQSPSSLSASVGDRVTITCRASQSVSSAVAWYQQKPGKAPKLLIYSASSLYSGVPSRFSGSRSGTDFTLTISSLQPEDFATYYCQQSSSSLVTFGQGTKVEIK
notes: heavy chain of hI365 fused to hIgG1-Fc (pFUSE-hIgG1-Fc); as the light chain of m16; also called WT hI365; source: Expi293, transiently cotransfected, purified (protein A or Ni-NTA); copies: 2 + 2
Take B4: the affinity in assay [4], expressed as Kd, was 1.2 nM.

B5: hI364 IgG (antibody, V domains shown)
VH: EVQLVESGGGLVQPGGSLRLSCAASGFNVYSSSIHWVRQAPGKGLEWVASISSSSGSTSYADSVKGRFTISADTSKNTAYLQMNSLRAEDTAVYYCARYSDHYYYWSYWSSWYSGLDYWGQGTLVTVSS
VL: DIQMTQSPSSLSASVGDRVTITCRASQSVSSAVAWYQQKPGKAPKLLIYSASSLYSGVPSRFSGSRSGTDFTLTISSLQPEDFATYYCQQSSSSLITFGQGTKVEIK
notes: heavy chain of hI364 fused to hIgG1-Fc (pFUSE-hIgG1-Fc); light chain of hI364; The activity screen and the selection were done with the Fab form; source: Expi293, transiently cotransfected, purified (protein A or Ni-NTA); copies: 2 + 2
Take B5: binding in [4] was characterised by a dissociation constant (Kd) of 0.64 nM.

B6: hI281 Fab (Fab, V domains shown)
VH: EVQLVESGGGLVQPGGSLRLSCAASGFNVSYSSIHWVRQAPGKGLEWVASIYPYYGSTSYADSVKGRFTISADTSKNTAYLQMNSLRAEDTAVYYCARQMYYWMFSKLALDYWGQGTLVTVSS
VL: DIQMTQSPSSLSASVGDRVTITCRASQSVSSAVAWYQQKPGKAPKLLIYSASSLYSGVPSRFSGSRSGTDFTLTISSLQPEDFATYYCQQSYYRTLFTFGQGTKVEIK
notes: Fab heavy chain of hI281; light chain of hI281; From synthetic Fab-phage library E (4D5-type scaffold); also called Fab-hI281; source: E. coli C43 (DE3) Pro+, purified (Ni-NTA)
Consider B6, for which, in assay [5], the binding result is reported as “binds”.

B7: mA342-c3 (antibody, V domains shown)
VH: EVQLVESGGGLVQPGGSLRLSCAASGFNVYSSSIHWVRQAPGKGLEWVASISSSSGYTYYADSVKGRFTISADTSKNTAYLQMNSLRAEDTAVYYCARYSASIYYYSGYPAYHAGLDYWGQGTLVTVSS
VL: DIQMTQSPSSLSASVGDRVTITCRASQSVSSAVAWYQQKPGKAPKLLIYSASSLYSGVPSRFSGSRSGTDFTLTISSLQPEDFATYYCQQWSYSRLATFGQGTKVEIK
notes: as the heavy chain of m20 with the stated changes; as the light chain of m20 with the stated change; The text names it mA342-c3, the legends mA342-c4
As for B7, the binding result in [6] was “binds”.

B8: hI281 IgG (antibody, V domains shown)
VH: EVQLVESGGGLVQPGGSLRLSCAASGFNVSYSSIHWVRQAPGKGLEWVASIYPYYGSTSYADSVKGRFTISADTSKNTAYLQMNSLRAEDTAVYYCARQMYYWMFSKLALDYWGQGTLVTVSS
VL: DIQMTQSPSSLSASVGDRVTITCRASQSVSSAVAWYQQKPGKAPKLLIYSASSLYSGVPSRFSGSRSGTDFTLTISSLQPEDFATYYCQQSYYRTLFTFGQGTKVEIK
notes: heavy chain of hI281 fused to hIgG1-Fc (pFUSE-hIgG1-Fc); as the light chain of m10; IgG1; source: Expi293, transiently cotransfected, purified (protein A or Ni-NTA); copies: 2 + 2
As for B8, the binding result in assay [4] is “binds”.

B9: hA362 IgG (antibody, V domains shown)
VH: EVQLVESGGGLVQPGGSLRLSCAASGFNVSYYSIHWVRQAPGKGLEWVASISPYYGSTYYADSVKGRFTISADTSKNTAYLQMNSLRAEDTAVYYCARHPYRKGYSGLDYWGQGTLVTVSS
VL: DIQMTQSPSSLSASVGDRVTITCRASQSVSSAVAWYQQKPGKAPKLLIYSASSLYSGVPSRFSGSRSGTDFTLTISSLQPEDFATYYCQQSSYLPLFTFGQGTKVEIK
notes: heavy chain of hA362 fused to hIgG1-Fc (pFUSE-hIgG1-Fc); as the light chain of m13; IgG1; source: Expi293, transiently cotransfected, purified (protein A or Ni-NTA); copies: 2 + 2
B9: the binding result is listed as “binds” in assay [7] and “no binding” in assay [8].

B10: hA362 Fab (Fab, V domains shown)
VH: EVQLVESGGGLVQPGGSLRLSCAASGFNVSYYSIHWVRQAPGKGLEWVASISPYYGSTYYADSVKGRFTISADTSKNTAYLQMNSLRAEDTAVYYCARHPYRKGYSGLDYWGQGTLVTVSS
VL: DIQMTQSPSSLSASVGDRVTITCRASQSVSSAVAWYQQKPGKAPKLLIYSASSLYSGVPSRFSGSRSGTDFTLTISSLQPEDFATYYCQQSSYLPLFTFGQGTKVEIK
notes: Fab heavy chain of hA362; light chain of hA362; also called Fab hA362; source: E. coli C43 (DE3) Pro+, purified (Ni-NTA)
Consider B10, for which the “fold decrease of binding affinity against WT hPAD4” value in [9] was around 10 fold; in assay [10], around 160 fold; in assay [11], around 3 fold. In [5], the binding result was “binds”.

B11: mA342 IgG (antibody, V domains shown)
VH: EVQLVESGGGLVQPGGSLRLSCAASGFNVYSSSIHWVRQAPGKGLEWVASISSSSGYTYYADSVKGRFTISADTSKNTAYLQMNSLRAEDTAVYYCARYSYSIYYYSGYPYYHMGLDYWGQGTLVTVSS
VL: DIQMTQSPSSLSASVGDRVTITCRASQSVSSAVAWYQQKPGKAPKLLIYSASSLYSGVPSRFSGSRSGTDFTLTISSLQPEDFATYYCQQWSYSRLITFGQGTKVEIK
notes: heavy chain of mA342 fused to hIgG1-Fc (pFUSE-hIgG1-Fc); light chain of mA342; also called WT mA342; source: Expi293, transiently cotransfected, purified (protein A or Ni-NTA); copies: 2 + 2
In the case of B11, the Kd was 200000 nM in assay [12] and below 1 nM in assay [6].

B12: hA288 Fab (Fab, V domains shown)
VH: EVQLVESGGGLVQPGGSLRLSCAASGFNVYYSSIHWVRQAPGKGLEWVASIYSYSGSTSYADSVKGRFTISADTSKNTAYLQMNSLRAEDTAVYYCARYWPKMAGYWYIYRFALDYWGQGTLVTVSS
VL: DIQMTQSPSSLSASVGDRVTITCRASQSVSSAVAWYQQKPGKAPKLLIYSASSLYSGVPSRFSGSRSGTDFTLTISSLQPEDFATYYCQQYRQYNLITFGQGTKVEIK
notes: Fab heavy chain of hA288; light chain of hA288; source: E. coli C43 (DE3) Pro+, purified (Ni-NTA)
In the case of B12, in assay [5], the binding result is reported as “binds”.
